Measurements published in patent publication US20200291098A1 (PANASONIC INTELLECTUAL PROPERTY MANAGEMENT, published 2020).

Experiments:
[1] = target: recombinant nucleoprotein (NP) protein derived from influenza virus H1N1 to which a Flag tag was fus (influenza virus H1N1)
[2] = target: intranuclear protein derived from type-A influenza virus subtype H1N1 (A/Hokkaido/6-5/2014) (type-A influenza virus H1N1 …)

Sequence of recombinant nucleoprotein (NP) protein derived from influenza virus H1N1 to which a Flag tag was fus (influenza virus H1N1) (P03466 whole entry): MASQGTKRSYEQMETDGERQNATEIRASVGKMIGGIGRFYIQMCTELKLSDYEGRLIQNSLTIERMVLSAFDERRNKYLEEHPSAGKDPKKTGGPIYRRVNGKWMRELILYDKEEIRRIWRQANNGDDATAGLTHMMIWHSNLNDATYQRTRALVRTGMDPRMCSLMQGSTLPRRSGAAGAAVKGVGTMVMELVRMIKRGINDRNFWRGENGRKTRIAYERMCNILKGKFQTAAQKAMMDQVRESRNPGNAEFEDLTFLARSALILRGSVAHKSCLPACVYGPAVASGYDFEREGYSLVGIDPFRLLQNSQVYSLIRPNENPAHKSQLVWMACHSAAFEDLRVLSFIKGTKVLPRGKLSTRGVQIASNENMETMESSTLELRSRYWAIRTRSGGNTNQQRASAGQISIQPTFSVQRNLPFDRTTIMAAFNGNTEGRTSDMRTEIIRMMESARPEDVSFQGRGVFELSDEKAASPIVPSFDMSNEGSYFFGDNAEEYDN

B1: VHH antibody consisting of the amino acid sequence represented by SEQ ID NO: 8 (VHH)
VHH: EVQLVESGGGLVQPGGSLSLSCAASGFTFSNYYMGWFRQAPGKERQSLATVNSGGTGEAYADSIRGRFTISRDNAKNTVTLQMSSLQPEDTAVYYCARVDGRVLSTIVVSYDYWGQGTQVTVSS
[1]
  Kd: 0.201 nM
[2]
  EC50 (read off the curve): ~8 ng/mL
